Patent US20240181125A1 (WASHINGTON UNIVERSITY, published 2024)
Primed or numbered codes have the meaning given here. Ends that are not written are not given here. FITC′ = not defined here

How the values were obtained:
[1] = target: T1, TGFβ receptor II (TβR2), R&D, coated on ELISA plate; assay: ELISA-like binding assay, receptor coated on plate, FITC fluorescence of bound peptide
T1 construct: Bought protein (R&D), coated at 20 nM; also called TGFβRII; TβRII
Excerpt: We synthesized a peptide […]-FITC (PTβR2I), based on the sequence from a phage display library that binds specifically to […] and interactions between TβR2 and TGFβ1.63-65 We first examined the specific binding of PTβR2I with TβR2 using an ELISA-like binding assay. TGFβ receptor I (TβR1), TGFβ receptor III (TβR3), and IgG were used as controls. […] This finding was further validated on the cellular level. We used human dermal fibroblasts (HDFs) to study the binding affinity of PTβR2I to TβR2 under a glucose level of 4.5 g/L, which mimics the hyperglycemic conditions of diabetes. With PTβR2I added, the HDF binding sites on HDF of TβR2 were occupied, so the TβR2 could not be detected by immunofluorescence (FIG. 5F).
To test the ability of PTβR2I to bind to TβR2, a binding assay was performed. TβR1, TβR3, and IgG were used as controls. In brief, ELISA plates (Costar) were coated with 20 nM of TβR2 (R&D), TβR1 (R&D), or IgG (R&D) and incubated at 4° C. overnight. The plate was blocked with Tris-buffered Saline (TBS) containing 5% bovine serum albumin (BSA) for 1 hour. Then PTβR2I (0.5 μg/mL) was added to the plate and incubated for 2 hours. The fluorescence intensity was read by a microplate reader (Molecular Devices) with a predefined wavelength (excitation/emission=485/535 nm).

[2] = target: T2, TGFβ receptor II (TβR2) on human dermal fibroblasts (HDFs) (human, UniProt P37173 23-567); assay: immunofluorescence of HDFs with anti-TβR2 antibody and FITC signal of the peptide
T2 construct: whole, on cells; Endogenous receptor on HDFs cultured at 4.5 g/L glucose; also called TGFβRII
T2 sequence (P37173 23-567): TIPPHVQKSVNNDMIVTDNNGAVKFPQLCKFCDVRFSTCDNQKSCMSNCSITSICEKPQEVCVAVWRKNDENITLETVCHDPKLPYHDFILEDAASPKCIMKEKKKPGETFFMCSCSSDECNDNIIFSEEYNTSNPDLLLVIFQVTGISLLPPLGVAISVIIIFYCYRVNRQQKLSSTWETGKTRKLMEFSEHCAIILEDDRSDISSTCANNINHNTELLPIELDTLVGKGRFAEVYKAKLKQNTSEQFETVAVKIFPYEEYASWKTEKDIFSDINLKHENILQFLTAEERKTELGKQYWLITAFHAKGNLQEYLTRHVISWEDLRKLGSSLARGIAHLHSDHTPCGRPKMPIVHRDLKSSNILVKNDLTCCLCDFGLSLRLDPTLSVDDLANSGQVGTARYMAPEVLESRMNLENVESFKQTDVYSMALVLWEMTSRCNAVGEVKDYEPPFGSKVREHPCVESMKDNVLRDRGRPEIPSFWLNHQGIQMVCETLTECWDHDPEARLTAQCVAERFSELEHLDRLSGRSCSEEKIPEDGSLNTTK

T1 sequence (P37173 whole entry): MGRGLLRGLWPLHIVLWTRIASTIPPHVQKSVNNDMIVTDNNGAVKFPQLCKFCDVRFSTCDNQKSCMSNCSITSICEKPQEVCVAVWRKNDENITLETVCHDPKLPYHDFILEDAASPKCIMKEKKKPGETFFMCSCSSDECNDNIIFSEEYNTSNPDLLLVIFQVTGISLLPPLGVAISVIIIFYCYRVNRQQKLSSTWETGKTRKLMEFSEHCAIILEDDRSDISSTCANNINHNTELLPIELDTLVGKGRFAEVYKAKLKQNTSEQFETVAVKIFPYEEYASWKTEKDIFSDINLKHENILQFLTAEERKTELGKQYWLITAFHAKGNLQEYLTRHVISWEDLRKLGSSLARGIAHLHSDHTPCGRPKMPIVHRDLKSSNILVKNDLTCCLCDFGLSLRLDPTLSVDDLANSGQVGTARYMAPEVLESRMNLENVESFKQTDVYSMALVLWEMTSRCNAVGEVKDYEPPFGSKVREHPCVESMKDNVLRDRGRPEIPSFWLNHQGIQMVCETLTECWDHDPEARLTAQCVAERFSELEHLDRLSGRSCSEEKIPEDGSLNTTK

B1: peptide-based TGFβ receptor II inhibitor (PTβR2I), ECGLLPVGRPDRVWRLCK-FITC (peptide)
peptide: ECGLLPVGRPDRVWRLCK-{FITC′}
modifications: cysteine pairing not given here
Kd [1]: 3.4 µM
binding result [2]: binds
